Assay [1] concerns the target recombinant PSG1 (pregnancy-specific glycoprotein 1) (human) (UniProt P11464). As to the kind of experiment: SPR. (In SPR one partner is held on a chip, and binding of the other changes the refractive index at the surface.)
In assay [2] the target is recombinant murine Psg23-myc-His (mouse). As to the kind of experiment: BLI.

recombinant PSG1 (pregnancy-specific glycoprotein 1) (human), sequence (P11464 35-419): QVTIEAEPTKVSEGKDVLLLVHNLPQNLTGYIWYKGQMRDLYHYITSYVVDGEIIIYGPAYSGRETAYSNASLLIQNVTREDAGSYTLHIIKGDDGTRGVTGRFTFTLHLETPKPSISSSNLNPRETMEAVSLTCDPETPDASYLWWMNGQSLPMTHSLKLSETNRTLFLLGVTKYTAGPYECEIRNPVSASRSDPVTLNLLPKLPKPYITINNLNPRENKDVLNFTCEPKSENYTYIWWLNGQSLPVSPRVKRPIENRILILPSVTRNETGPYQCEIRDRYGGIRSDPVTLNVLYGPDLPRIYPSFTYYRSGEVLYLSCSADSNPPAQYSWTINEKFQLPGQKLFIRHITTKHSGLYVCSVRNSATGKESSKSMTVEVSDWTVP
recombinant mouse galectin 9, sequence (O08573 whole entry): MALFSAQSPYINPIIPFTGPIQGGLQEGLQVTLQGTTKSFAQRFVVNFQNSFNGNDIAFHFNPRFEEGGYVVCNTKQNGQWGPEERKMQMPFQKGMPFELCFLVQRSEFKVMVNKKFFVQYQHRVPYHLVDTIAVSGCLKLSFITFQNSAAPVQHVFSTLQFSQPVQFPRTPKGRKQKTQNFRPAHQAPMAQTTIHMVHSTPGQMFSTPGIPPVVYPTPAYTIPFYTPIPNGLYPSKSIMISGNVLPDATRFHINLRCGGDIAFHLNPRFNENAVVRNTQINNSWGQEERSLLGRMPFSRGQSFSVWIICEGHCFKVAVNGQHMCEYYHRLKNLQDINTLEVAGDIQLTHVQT

As usually defined, the Kd is the constant that tells how readily two partners part at equilibrium. One may read the koff as a measure of how fast the partners let go of each other. “GAL-9 C-terminal carbohydrate recognition domain (domain or fragment)”: in assay [1], the equilibrium dissociation constant (Kd) turned out to be 1.7 µM and the koff was 0.00415 s⁻¹.
Turning to “GAL-9 N-terminal carbohydrate recognition domain (domain or fragment)”, in assay [1], the Kd turned out to be 5780 µM and the koff worked out at 0.0106 s⁻¹.
Usually kon stands for the rate constant with which the complex forms. With “recombinant mouse galectin 9 (from UniProt O08573 1-353) (natural protein)”, in assay [2], the Kd was 0.00228 µM, the koff is 0.00635 s⁻¹ and the association rate constant (kon) is 2.79e+06 M⁻¹ s⁻¹.
